Measurements published in patent publication US20200262877A1, “ION CHANNEL-BINDING PEPTIDES AND METHODS OF USE THEREOF” (priority 2017, published 2020).

Columns and labels:
[1] = biological target: T1, 5HT3a (Homo sapiens, UniProt P46098); assay: Ion channel panel (IonWorks Barracuda): 5HT3a; assay type: cell-based
T1 construct: host or cells: HEK293 or CHO
T1 sequence (P46098 whole entry, looked up): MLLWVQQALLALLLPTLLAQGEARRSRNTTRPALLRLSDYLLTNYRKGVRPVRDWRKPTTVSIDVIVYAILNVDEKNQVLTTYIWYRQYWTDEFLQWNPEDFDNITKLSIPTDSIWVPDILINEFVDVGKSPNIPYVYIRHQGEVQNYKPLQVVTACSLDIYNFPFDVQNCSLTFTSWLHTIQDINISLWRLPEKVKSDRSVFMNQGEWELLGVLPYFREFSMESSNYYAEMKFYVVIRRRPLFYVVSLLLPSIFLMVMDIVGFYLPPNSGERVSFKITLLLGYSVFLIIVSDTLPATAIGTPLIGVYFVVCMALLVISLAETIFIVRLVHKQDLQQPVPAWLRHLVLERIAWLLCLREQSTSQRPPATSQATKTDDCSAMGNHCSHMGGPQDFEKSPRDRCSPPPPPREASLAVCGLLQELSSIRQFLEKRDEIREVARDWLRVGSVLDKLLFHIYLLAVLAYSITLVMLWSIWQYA
In short: (§1)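 Peptides were tested in duplicate at final 20 μM and 200 nM, with concentration set by amino acid analysis, in HEPES-buffered saline. They were applied for at least 5 min to HEK293 or CHO cells transfected with each channel. Currents were expressed as % inhibition, 1-(Ipeptide/Icontrol)×100, or % activation, Ipeptide/Icontrol×100, against a channel-matched reference compound.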

[2] = biological target: T2, TRPV1 (Homo sapiens, UniProt Q8NER1); assay: Ion channel panel (IonWorks Barracuda): TRPV1; assay type: cell-based; settings: 100% = no change, <100% = inhibition
T2 construct: host or cells: HEK293 or CHO
In short: as §1

[3] = biological target: T3, Nav1.7 (Homo sapiens, UniProt Q15858); assay: cell-based; assay type: cell-based; settings: 100% = no change; for Activity of Nav1.7 with peptide, expressed as a percentage of the reference compound: peptide at 0.2 μM; for Activity of Nav1.7 with peptide (percentage of the reference compound): peptide at 20 μM
T3 construct: host or cells: HEK293 or CHO
T3 sequence (Q15858 whole entry): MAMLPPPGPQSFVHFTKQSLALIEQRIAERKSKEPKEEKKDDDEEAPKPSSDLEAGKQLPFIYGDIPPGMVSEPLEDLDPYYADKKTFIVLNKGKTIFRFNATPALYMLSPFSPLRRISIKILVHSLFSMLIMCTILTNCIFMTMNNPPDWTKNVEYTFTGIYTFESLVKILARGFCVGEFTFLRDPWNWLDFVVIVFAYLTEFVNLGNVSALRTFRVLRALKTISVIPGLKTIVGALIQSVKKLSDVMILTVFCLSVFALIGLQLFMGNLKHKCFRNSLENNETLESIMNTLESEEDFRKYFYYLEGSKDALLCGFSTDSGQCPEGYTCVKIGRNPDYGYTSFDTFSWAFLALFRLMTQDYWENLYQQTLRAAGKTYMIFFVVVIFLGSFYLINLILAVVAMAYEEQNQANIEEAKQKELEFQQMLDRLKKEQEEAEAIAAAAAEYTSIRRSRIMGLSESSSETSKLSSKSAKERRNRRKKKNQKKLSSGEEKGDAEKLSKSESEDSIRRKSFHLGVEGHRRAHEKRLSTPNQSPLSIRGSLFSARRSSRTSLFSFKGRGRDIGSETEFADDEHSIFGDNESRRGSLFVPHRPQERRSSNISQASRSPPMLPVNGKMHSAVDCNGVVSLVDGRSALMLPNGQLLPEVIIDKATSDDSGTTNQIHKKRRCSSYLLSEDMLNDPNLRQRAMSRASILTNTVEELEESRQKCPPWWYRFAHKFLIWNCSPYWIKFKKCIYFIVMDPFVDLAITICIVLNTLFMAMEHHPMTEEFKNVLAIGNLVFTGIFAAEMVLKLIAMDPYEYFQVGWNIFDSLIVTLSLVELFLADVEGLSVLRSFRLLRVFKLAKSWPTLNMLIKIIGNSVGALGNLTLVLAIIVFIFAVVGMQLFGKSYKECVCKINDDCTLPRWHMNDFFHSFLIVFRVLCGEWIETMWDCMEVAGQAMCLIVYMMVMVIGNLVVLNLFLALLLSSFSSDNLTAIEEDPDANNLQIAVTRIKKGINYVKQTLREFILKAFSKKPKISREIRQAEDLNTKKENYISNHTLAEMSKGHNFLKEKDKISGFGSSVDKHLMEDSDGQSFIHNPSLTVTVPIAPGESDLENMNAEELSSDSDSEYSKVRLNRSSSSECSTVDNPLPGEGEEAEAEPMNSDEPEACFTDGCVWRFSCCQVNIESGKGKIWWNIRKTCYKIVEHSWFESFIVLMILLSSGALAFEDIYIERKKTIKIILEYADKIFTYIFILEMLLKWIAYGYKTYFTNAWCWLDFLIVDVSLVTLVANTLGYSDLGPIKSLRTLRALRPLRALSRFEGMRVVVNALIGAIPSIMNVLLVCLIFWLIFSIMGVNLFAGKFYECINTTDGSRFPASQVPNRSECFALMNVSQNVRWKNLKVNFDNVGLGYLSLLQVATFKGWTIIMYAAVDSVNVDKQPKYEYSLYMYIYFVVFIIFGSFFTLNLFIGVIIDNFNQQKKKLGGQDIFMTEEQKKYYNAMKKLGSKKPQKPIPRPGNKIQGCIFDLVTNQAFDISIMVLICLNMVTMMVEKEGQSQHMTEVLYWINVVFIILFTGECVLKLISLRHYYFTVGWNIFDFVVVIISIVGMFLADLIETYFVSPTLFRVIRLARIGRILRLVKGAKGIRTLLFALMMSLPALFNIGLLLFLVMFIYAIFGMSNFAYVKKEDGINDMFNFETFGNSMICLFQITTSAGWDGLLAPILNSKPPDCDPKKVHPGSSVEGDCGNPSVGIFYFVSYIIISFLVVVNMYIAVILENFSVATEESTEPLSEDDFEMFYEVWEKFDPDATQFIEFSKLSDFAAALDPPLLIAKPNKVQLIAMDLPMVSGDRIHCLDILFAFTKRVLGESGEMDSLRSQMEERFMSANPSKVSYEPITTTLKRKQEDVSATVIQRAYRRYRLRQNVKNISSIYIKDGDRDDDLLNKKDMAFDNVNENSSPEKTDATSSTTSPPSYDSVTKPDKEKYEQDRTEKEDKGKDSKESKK

[4] = tested on: GABA; assay: Ion channel panel (IonWorks Barracuda): GABA; assay type: cell-based; settings: 100% = no change, <100% = inhibition
In short: as §1

[5] = biological target: T4, NR2B (Homo sapiens, UniProt Q13224); assay: Ion channel panel (IonWorks Barracuda): NR2B; assay type: cell-based; settings: 100% = no change, <100% = inhibition
T4 construct: host or cells: HEK293 or CHO
In short: as §1

[6] = biological target: T5, Cav2.1 (Homo sapiens, UniProt O00555); assay: cell-based; settings: 100% = no change, <100% = inhibition
T5 construct: host or cells: HEK293 or CHO
In short: as §1

[7] = biological target: T6, Cav2.2 (Homo sapiens, UniProt Q00975); assay: cell-based; settings: 100% = no change, <100% = inhibition
T6 construct: host or cells: HEK293 or CHO
In short: as §1

[8] = biological target: T7, Kv2.1 (Homo sapiens, UniProt Q14721); assay: cell-based; settings: 100% = no change, <100% = inhibition
T7 construct: host or cells: HEK293 or CHO
In short: as §1

[9] = biological target: T8, NR2A (Homo sapiens, UniProt Q12879); assay: Ion channel panel (IonWorks Barracuda): NR2A; assay type: cell-based; settings: 100% = no change, <100% = inhibition
T8 construct: host or cells: HEK293 or CHO
In short: as §1

[10] = biological target: T9, TRPA1 (Homo sapiens, UniProt O75762); assay: Ion channel panel (IonWorks Barracuda): TRPA1; assay type: cell-based; settings: 100% = no change, <100% = inhibition
T9 construct: host or cells: HEK293 or CHO
In short: as §1

[11] = biological target: T10, α3β4 (Homo sapiens, UniProt P30926+P32297); assay: Ion channel panel (IonWorks Barracuda): α3β4; assay type: cell-based; settings: 100% = no change, <100% = inhibition
T10 construct: host or cells: HEK293 or CHO
In short: as §1

[12] = biological target: Nav1.5 (Homo sapiens, UniProt Q14524); assay: in vitro; settings: 100% = no change; for Activity of Nav1.5 with peptide, expressed as a percentage of the reference compound: peptide at 0.2 μM; for Activity of Nav1.5 with peptide (percentage of the reference compound): peptide at 20 μM
Chain of Nav1.5 (Q14524 whole entry): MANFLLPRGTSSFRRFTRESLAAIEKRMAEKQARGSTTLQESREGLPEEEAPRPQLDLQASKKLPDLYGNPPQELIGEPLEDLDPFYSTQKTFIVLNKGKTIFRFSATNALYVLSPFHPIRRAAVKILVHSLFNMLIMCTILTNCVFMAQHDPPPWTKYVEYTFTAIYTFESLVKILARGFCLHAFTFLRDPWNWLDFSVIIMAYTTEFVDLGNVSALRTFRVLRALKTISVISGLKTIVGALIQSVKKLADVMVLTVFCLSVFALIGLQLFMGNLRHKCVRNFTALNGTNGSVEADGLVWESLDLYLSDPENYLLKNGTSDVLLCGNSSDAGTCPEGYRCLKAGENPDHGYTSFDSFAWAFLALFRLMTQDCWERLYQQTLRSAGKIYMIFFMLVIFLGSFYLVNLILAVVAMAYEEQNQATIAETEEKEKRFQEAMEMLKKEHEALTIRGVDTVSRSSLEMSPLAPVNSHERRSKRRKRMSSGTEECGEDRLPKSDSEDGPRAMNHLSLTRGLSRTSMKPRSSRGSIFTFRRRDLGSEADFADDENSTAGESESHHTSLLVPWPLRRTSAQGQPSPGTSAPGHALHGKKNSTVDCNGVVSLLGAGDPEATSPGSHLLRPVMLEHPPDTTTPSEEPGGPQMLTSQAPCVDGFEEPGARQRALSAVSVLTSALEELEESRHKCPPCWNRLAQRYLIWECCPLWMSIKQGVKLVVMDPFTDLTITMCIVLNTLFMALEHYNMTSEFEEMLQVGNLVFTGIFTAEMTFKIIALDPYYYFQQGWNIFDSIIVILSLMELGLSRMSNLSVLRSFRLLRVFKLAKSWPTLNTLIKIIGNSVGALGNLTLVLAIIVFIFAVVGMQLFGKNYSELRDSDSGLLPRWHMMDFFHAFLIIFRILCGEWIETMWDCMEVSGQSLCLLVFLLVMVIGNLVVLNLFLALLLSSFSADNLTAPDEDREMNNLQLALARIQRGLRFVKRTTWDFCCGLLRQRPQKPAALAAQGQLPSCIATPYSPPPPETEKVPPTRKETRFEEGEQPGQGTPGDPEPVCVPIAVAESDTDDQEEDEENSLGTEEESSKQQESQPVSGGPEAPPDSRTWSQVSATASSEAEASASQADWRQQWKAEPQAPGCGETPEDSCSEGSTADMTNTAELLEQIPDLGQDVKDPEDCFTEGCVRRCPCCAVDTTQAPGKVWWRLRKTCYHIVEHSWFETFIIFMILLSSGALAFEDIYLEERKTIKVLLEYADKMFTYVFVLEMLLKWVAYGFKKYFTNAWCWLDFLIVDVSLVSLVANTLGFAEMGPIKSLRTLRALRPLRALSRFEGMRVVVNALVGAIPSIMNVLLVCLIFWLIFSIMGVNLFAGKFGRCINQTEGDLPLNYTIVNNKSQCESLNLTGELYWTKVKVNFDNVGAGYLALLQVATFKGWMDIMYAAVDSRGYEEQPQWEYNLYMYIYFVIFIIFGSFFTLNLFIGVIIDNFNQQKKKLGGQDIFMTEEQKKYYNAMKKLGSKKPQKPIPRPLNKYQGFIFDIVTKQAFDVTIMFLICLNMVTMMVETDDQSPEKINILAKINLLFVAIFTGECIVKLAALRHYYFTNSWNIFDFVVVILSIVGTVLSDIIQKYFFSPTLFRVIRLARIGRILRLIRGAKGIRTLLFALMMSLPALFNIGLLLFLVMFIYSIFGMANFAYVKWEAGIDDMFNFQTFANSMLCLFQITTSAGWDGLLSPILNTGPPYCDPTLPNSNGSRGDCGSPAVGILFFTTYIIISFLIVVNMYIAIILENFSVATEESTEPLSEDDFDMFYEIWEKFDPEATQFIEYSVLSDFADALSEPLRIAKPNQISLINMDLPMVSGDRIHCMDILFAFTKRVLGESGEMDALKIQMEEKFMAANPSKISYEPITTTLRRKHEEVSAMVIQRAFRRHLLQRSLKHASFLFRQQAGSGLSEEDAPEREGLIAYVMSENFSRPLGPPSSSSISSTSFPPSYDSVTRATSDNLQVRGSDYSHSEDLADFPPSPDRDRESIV
In short: as §1

[13] = biological target: hERG (Homo sapiens, UniProt Q12809); assay: in vitro; settings: 100% = no change, <100% = inhibition
In short: as §1

[14] = biological target: T11, α4β2 (Homo sapiens, UniProt P17787+P43681); assay: Ion channel panel (IonWorks Barracuda): α4β2; assay type: cell-based; settings: 100% = no change, <100% = inhibition
T11 construct: host or cells: HEK293 or CHO
T11 sequence (P43681 29-627): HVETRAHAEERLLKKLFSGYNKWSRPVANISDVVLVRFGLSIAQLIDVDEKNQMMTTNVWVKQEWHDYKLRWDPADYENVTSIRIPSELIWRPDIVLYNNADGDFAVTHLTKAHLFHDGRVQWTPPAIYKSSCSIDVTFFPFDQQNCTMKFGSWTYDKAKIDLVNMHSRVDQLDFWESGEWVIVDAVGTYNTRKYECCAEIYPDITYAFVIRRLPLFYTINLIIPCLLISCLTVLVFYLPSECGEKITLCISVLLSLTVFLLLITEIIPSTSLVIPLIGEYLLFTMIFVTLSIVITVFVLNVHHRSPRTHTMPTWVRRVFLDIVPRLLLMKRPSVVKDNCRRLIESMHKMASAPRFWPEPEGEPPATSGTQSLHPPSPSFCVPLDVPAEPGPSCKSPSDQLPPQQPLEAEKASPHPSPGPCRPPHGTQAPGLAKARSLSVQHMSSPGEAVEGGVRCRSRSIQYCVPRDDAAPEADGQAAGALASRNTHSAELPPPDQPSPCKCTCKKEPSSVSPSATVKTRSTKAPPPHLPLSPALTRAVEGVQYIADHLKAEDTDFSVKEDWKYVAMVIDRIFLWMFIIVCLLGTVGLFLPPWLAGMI
T11 sequence (P17787 26-502): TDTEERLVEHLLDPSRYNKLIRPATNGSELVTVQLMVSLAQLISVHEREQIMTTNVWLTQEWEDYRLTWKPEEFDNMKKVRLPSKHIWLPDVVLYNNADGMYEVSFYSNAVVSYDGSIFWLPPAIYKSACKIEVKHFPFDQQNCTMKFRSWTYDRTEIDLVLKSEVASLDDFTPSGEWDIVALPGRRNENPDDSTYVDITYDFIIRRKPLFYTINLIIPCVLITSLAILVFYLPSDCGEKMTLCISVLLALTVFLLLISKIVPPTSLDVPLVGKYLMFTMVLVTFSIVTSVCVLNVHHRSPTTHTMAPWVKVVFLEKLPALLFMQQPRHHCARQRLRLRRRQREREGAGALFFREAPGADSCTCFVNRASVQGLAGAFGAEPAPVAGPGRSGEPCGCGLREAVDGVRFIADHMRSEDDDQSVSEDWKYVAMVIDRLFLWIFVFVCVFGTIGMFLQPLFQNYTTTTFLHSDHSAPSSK
In short: as §1

[15] = biological target: T12, Kir2.1 (Homo sapiens, UniProt P63252); assay: Ion channel panel (IonWorks Barracuda): Kir2.1; assay type: cell-based; settings: 100% = no change, <100% = inhibition
T12 construct: host or cells: HEK293 or CHO
In short: as §1

[16] = biological target: T13, Kv1.3 (Homo sapiens, UniProt P22001); assay: cell-based; assay type: cell-based; settings: 100% = no change, <100% = inhibition
T13 construct: host or cells: HEK293 or CHO
In short: as §1

[17] = biological target: T14, Kv1.1 (Homo sapiens, UniProt Q09470); assay: cell-based; assay type: cell-based; settings: 100% = no change, <100% = inhibition
T14 construct: host or cells: HEK293 or CHO
In short: as §1

[18] = biological target: T15, Kv1.2 (Homo sapiens, UniProt P16389); assay: cell-based; assay type: cell-based; settings: 100% = no change, <100% = inhibition
T15 construct: host or cells: HEK293 or CHO
In short: as §1

[19] = first of two Nav1.7 columns (probably TP1)
[20] = second of two Nav1.7 columns (probably TP2)
[21] = first of two Nav1.5 columns (probably TP1)
[22] = second of two Nav1.5 columns (probably TP2)

Substance: 14 (GSDRDSCIDKSRCSKYGYYQECQDCCKKAGHNGGTCMFFKCKCA) [compound 14]
- Activity of 5HT3a with peptide (percentage of the reference compound) [1]: 78%
- Activity of 5HT3a with peptide, expressed as a percentage of the reference compound [1]: 96%
- Activity of TRPV1 with peptide, expressed as a percentage of the reference compound ([2]; peptide at 0.2 μM): 133%
- Activity of TRPV1 with peptide (percentage of the reference compound) ([2]; peptide at 20 μM): 92%
- Activity of Nav1.7 with peptide, expressed as a percentage of the reference compound [3, 19]: 83%
- Activity of Nav1.7 with peptide, expressed as a percentage of the reference compound [3, 20]: 89%
- Activity of Nav1.7 with peptide (percentage of the reference compound) [3, 19]: 72%
- Activity of Nav1.7 with peptide (percentage of the reference compound) [3, 20]: 65%
- Activity of GABA with peptide, expressed as a percentage of the reference compound ([4]; peptide at 0.2 μM): 107%
- Activity of GABA with peptide (percentage of the reference compound) ([4]; peptide at 20 μM): 120%
- Activity of NR2B with peptide, expressed as a percentage of the reference compound ([5]; peptide at 0.2 μM): 123%
- Activity of NR2B with peptide (percentage of the reference compound) ([5]; peptide at 20 μM): 72%
- Activity of Cav2.1 with peptide, expressed as a percentage of the reference compound ([6]; peptide at 0.2 μM): 118%
- Activity of Cav2.1 with peptide (percentage of the reference compound) ([6]; peptide at 20 μM): 111%
- Activity of Cav2.2 with peptide, expressed as a percentage of the reference compound ([7]; peptide at 0.2 μM): 129%
- Activity of Cav2.2 with peptide (percentage of the reference compound) ([7]; peptide at 20 μM): 95%
- Activity of Kv2.1 with peptide, expressed as a percentage of the reference compound ([8]; peptide at 0.2 μM): 109%
- Activity of Kv2.1 with peptide (percentage of the reference compound) ([8]; peptide at 20 μM): 93%
- Activity of NR2A with peptide, expressed as a percentage of the reference compound ([9]; peptide at 0.2 μM): 107%
- Activity of NR2A with peptide (percentage of the reference compound) ([9]; peptide at 20 μM): 95%
- Activity of TRPA1 with peptide, expressed as a percentage of the reference compound ([10]; peptide at 0.2 μM): 106%
- Activity of TRPA1 with peptide (percentage of the reference compound) ([10]; peptide at 20 μM): 66%
- Activity of a3b4 with peptide, expressed as a percentage of the reference compound ([11]; peptide at 0.2 μM): 99%
- Activity of a3b4 with peptide (percentage of the reference compound) ([11]; peptide at 20 μM): 93%
- Activity of Nav1.5 with peptide, expressed as a percentage of the reference compound [12, 21]: 85%
- Activity of Nav1.5 with peptide, expressed as a percentage of the reference compound [12, 22]: 82%
- Activity of Nav1.5 with peptide (percentage of the reference compound) [12, 21]: 94%
- Activity of Nav1.5 with peptide (percentage of the reference compound) [12, 22]: 97%
- Activity of hERG with peptide, expressed as a percentage of the reference compound ([13]; peptide at 0.2 μM): 82%
- Activity of hERG with peptide (percentage of the reference compound) ([13]; peptide at 20 μM): 1%
- Activity of a4b2 with peptide, expressed as a percentage of the reference compound ([14]; peptide at 0.2 μM): 106%
- Activity of a4b2 with peptide (percentage of the reference compound) ([14]; peptide at 20 μM): 81%
- Activity of Kir2.1 with peptide, expressed as a percentage of the reference compound ([15]; peptide at 0.2 μM): 95%
- Activity of Kir2.1 with peptide (percentage of the reference compound) ([15]; peptide at 20 μM): 79%
- Activity of Kv1.3 with peptide, expressed as a percentage of the reference compound ([16]; peptide at 0.2 μM): 87%
- Activity of Kv1.3 with peptide (percentage of the reference compound) ([16]; peptide at 20 μM): 82%
- Activity of Kv1.1 with peptide, expressed as a percentage of the reference compound ([17]; peptide at 0.2 μM): 79%
- Activity of Kv1.1 with peptide (percentage of the reference compound) ([17]; peptide at 20 μM): 99%
- Activity of Kv1.2 with peptide, expressed as a percentage of the reference compound ([18]; peptide at 0.2 μM): 73%
- Activity of Kv1.2 with peptide (percentage of the reference compound) ([18]; peptide at 20 μM): 34%
